Reference: patent US20210380703A1 (RIGEL PHARMACEUTICALS, published 2021)
Changes are numbered by the printed parent chain.

Tests used:
human ACVR2A = target: T1, human ACVR2A (human, UniProt P27037 20-135, limits assumed); test: ELISA
T1 construct: also called activin receptor, type II A
In short: (§1)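 ELISA measured binding of ACVR2A-specific monoclonal antibodies to human and mouse ACVR2A. Biotinylated goat anti-human kappa light chain served as positive control and human Fc as negative control.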

mouse ACVR2A = mouse ACVR2A (mouse, UniProt P27038 20-135, limits assumed); test: ELISA
In short: as §1

[1] = target: T2, biotinylated goat anti-human kappa light chain; test: ELISA, positive control
T2 construct: positive control of the ELISA
In short: as §1
Also: test concentration or dose not given here.

mouse ACVR2A, sequence (P27038 20-135 limits assumed): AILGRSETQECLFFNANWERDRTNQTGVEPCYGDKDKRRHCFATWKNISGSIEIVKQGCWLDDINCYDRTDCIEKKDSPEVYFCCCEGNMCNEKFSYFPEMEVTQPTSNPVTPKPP
T1 sequence (P27037 20-135 limits assumed): as the sequence (P27038 20-135 limits assumed) above, with R20K, I73V counted along it

B1: 365_F03 (antibody, V domains shown)
VH: EVQLLESGGGLVQPGGSLRLSCAASGFTFDSYSMNWVRQAPGKGLEWVSSINYNGGYTSYADSVKGRFTISRDNSKNTLYLQMNSLRAEDTAVYYCARGANWHDTHLDYWGQGTLVTVSS
VL: DIQMTQSPSSLSASVGDRVTITCRASQSILSYLNWYQQKPGKAPKLLIYAATSRASGVPSRFSGSGSGTDFTLTISSLQPEDFATYYCQQSYDNPLTFGGGTKVEIK
notes: Group III
B1 showed an optical density (human ACVR2A) of 2.63 OD, an optical density (mouse ACVR2A) of 2.99 OD and an optical density [1] of 3.57 OD.

B2: 366_D03 (antibody, V domains shown)
VH: B1 VH with S33G, N35H, S59G, G99A
VL: B1 VL with L33V, N94L
notes: Group I
With B2 the optical density (human ACVR2A) was 2.23 OD, the optical density (mouse ACVR2A) was 2.38 OD and the optical density [1] was 3.48 OD.

B3: 366_H04 (antibody, V domains shown)
VH: B1 VH with S33G, S50N, T58K
VL: B1 VL with S31T, D93S, N94S
notes: Group III
Work on B3 yielded an optical density (human ACVR2A) of 2.69 OD, an optical density (mouse ACVR2A) of 2.83 OD and an optical density [1] of 3.52 OD.

B4: 367_B09 (antibody, V domains shown)
VH: B1 VH with S33G, N35H, S49A, G99A, H106A
VL: B1 VL with L33V, L47V, D93E
notes: Group I
In the case of B4, the optical density (human ACVR2A) is reported as 2.42 OD, the optical density (mouse ACVR2A) is reported as 2.43 OD and the optical density [1] is reported as 3.37 OD.

B5: 367_A06 (antibody, V domains shown)
VH: B1 VH with S33G, S49A, T58K, S59G
VL: B1 VL with L33V, A55H, N94T
notes: Group III
B5 showed an optical density (human ACVR2A) of 2.34 OD, an optical density (mouse ACVR2A) of 2.57 OD and an optical density [1] of 3.36 OD.

B6: 366_F10 (antibody, V domains shown)
VH: B1 VH with S49A, S50G, S59G, G99A
VL: B1 VL with L30V, L47V, N94T
notes: Group I
B6 was tested, and the optical density (human ACVR2A) was 2.05 OD, the optical density (mouse ACVR2A) was 2.21 OD and the optical density [1] was 3.52 OD.

B7: 367_A03 (antibody, V domains shown)
VH: B1 VH with S33G, S49A, S50G, H106A
VL: B1 VL with S31T, L33V, A51T, A55H, N94S
notes: Group III
B7 was tested, and the optical density (human ACVR2A) was 2.58 OD, the optical density (mouse ACVR2A) was 2.45 OD and the optical density [1] was 3.44 OD.

B8: 366_A04 (antibody, V domains shown)
VH: B1 VH with D30S, S33G, S49A, S50G, G99A, H106A
VL: B1 VL with S31T, L47V, R54L, Y92D, N94S
notes: Group I
With B8 the optical density (human ACVR2A) was 1.82 OD, the optical density (mouse ACVR2A) was 1.99 OD and the optical density [1] was 3.4 OD.

B9: 366_E08 (antibody, V domains shown)
VH: B1 VH with D30S, S31D, S50N
VL: B1 VL with L30V, S31T, A55H, D93S
notes: Group III
B9 was tested, and the optical density (human ACVR2A) was 1.97 OD, the optical density (mouse ACVR2A) was 2 OD and the optical density [1] was 3.35 OD.

B10: 366_G02 (antibody, V domains shown)
VH: B1 VH with S33G, N35H, G99A, N101T
VL: B1 VL with S31T, A55H, Y92D
notes: Group II
B10 showed an optical density (human ACVR2A) of 2.16 OD, an optical density (mouse ACVR2A) of 2.32 OD and an optical density [1] of 3.56 OD.

B11: 366_B09 (antibody, V domains shown)
VH: B1 VH with D30S, S31D, S33G, N35H, G55S, T58K, G99A, N101T
VL: B1 VL with S31T, L47V, A55H, N94S
notes: Group II
Work on B11 yielded an optical density (human ACVR2A) of 2.3 OD, an optical density (mouse ACVR2A) of 2.53 OD and an optical density [1] of 3.39 OD.

B12: 365_G08 (antibody, V domains shown)
VH: B1 VH with D30S, S33G, N35H, S49A, G99A, N101T
VL: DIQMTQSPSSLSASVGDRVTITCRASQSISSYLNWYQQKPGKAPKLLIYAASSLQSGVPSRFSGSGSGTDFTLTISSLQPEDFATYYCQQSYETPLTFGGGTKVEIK
notes: Group II
Binder B12 has an optical density (human ACVR2A) of 2.53 OD, an optical density (mouse ACVR2A) of 2.58 OD and an optical density [1] of 3.5 OD.

B13: 366_F02 (antibody, V domains shown)
VH: B1 VH with D30S, S33G, S50G, G55S, S59G
VL: B1 VL with S31T, L47V, A55H
notes: Group III
For B13, the optical density (human ACVR2A) was 2.15 OD, the optical density (mouse ACVR2A) was 2.11 OD and the optical density [1] was 3.6 OD.

B14: 365_F11 (antibody, V domains shown)
VH: B1 VH with S50G, G55S, T58K, S59G, G99A
VL: B1 VL with L30I, L33V, D93N, N94T
notes: Group I
With B14 the optical density (human ACVR2A) was 2.01 OD, the optical density (mouse ACVR2A) was 2.14 OD and the optical density [1] was 3.5 OD.

B15: 366_E01 (antibody, V domains shown)
VH: B1 VH with S33G, S50N, T58K
VL: B1 VL with S31T, D93S, N94S
notes: Group III
In the case of B15, the optical density (human ACVR2A) is reported as 2.69 OD, the optical density (mouse ACVR2A) is reported as 2.72 OD and the optical density [1] is reported as 3.66 OD.

B16: 365_H08 (antibody, V domains shown)
VH: B1 VH with D30S, S33G, N35H, S49A, T58K, G99A, H106A
VL: not shown
notes: Group I
With B16 the optical density (human ACVR2A) was 2.67 OD, the optical density (mouse ACVR2A) was 2.61 OD and the optical density [1] was 3.59 OD.

B17: 367_C06 (antibody, V domains shown)
VH: B1 VH with N35H, S49A, T58K, G99A, N101T
VL: B1 VL with S31T, L47V, R54L, A55H, N94T
notes: Group II
For B17, the optical density (human ACVR2A) was 2.12 OD, the optical density (mouse ACVR2A) was 2.51 OD and the optical density [1] was 3.5 OD.

B18: 367_A08 (antibody, V domains shown)
VH: B1 VH with S33G, S49A, S50G
VL: B1 VL with S31T, A51V, N94S
notes: Group III
Binder B18 has an optical density (human ACVR2A) of 2.06 OD, an optical density (mouse ACVR2A) of 2.09 OD and an optical density [1] of 3.34 OD.

B19: 365_G05 (antibody, V domains shown)
VH: B1 VH with D30S, S33G, S50G, T58K, S59G, H106A
VL: B1 VL with L47V, R54L, D93E
notes: Group III
With B19 the optical density (human ACVR2A) was 2.44 OD, the optical density (mouse ACVR2A) was 2.54 OD and the optical density [1] was 3.35 OD.

B20: 365_G07 (antibody, V domains shown)
VH: B1 VH with S33G, N35H, G99A, H106A
VL: B1 VL with L30V
notes: Group I
For B20, the optical density (human ACVR2A) was 2.42 OD, the optical density (mouse ACVR2A) was 2.6 OD and the optical density [1] was 3.47 OD.

B21: 366_B07 (antibody, V domains shown)
VH: B1 VH with D30S, S31D, S33G, S50G
VL: B1 VL with L30V, L47V, A51T, D93N, N94S
notes: Group III
In the case of B21, the optical density (human ACVR2A) is reported as 1.8 OD, the optical density (mouse ACVR2A) is reported as 1.92 OD and the optical density [1] is reported as 3.22 OD.

B22: 366_A02 (antibody, V domains shown)
VH: B1 VH with S33G, S49A, G55S, T58K, S59G, G99A
VL: B1 VL with L30V, L33V, N94L
notes: Group I
B22 gave an optical density (human ACVR2A) of 2.45 OD, an optical density (mouse ACVR2A) of 2.69 OD and an optical density [1] of 3.58 OD.

B23: 365_H07 (antibody, V domains shown)
VH: B1 VH with S50G
VL: B1 VL with L30S, S31T, L33V, A55H, D93E
notes: Group III
B23 gave an optical density (human ACVR2A) of 2.51 OD, an optical density (mouse ACVR2A) of 2.75 OD and an optical density [1] of 3.43 OD.

B24: 366_G06 (antibody, V domains shown)
VH: B1 VH with D30S, S33G, N35H, S49A, S59G, G99A
VL: B1 VL with L30V, L33V, L47V
notes: Group I
B24 was tested, and the optical density (human ACVR2A) was 2.68 OD, the optical density (mouse ACVR2A) was 2.82 OD and the optical density [1] was 3.41 OD.

B25: 365_G09 (antibody, V domains shown)
VH: B1 VH with D30S, S50G, T58K
VL: B1 VL with L30I, S31T, L47V, D93N, N94S
notes: Group III
B25 gave an optical density (human ACVR2A) of 2.62 OD, an optical density (mouse ACVR2A) of 2.93 OD and an optical density [1] of 3.67 OD.

B26: 366_H01 (antibody, V domains shown)
VH: B1 VH with S31D, N35H, S49A, S50N, G99A, N101T
VL: B1 VL with S31T, L47V, A51T, A55H, D93E, N94S
notes: Group II
For B26, the optical density (human ACVR2A) was 2.79 OD, the optical density (mouse ACVR2A) was 2.77 OD and the optical density [1] was 3.71 OD.

B27: 365_F10 (antibody, V domains shown)
VH: B1 VH with S31D, S33G, N35H, S50G, G99A, N101T
VL: B1 VL with L30V, S31T, L33V, D93E, N94L
notes: Group II
B27 was tested, and the optical density (human ACVR2A) was 2.75 OD, the optical density (mouse ACVR2A) was 2.79 OD and the optical density [1] was 3.65 OD.

B28: 365_G03 (antibody, V domains shown)
VH: B1 VH with D30S, S33G, S49A, S50G, G55S, T58K, S59G
VL: B1 VL with L30V, D93N, N94T
notes: Group III
B28 showed an optical density (human ACVR2A) of 2.24 OD, an optical density (mouse ACVR2A) of 2.54 OD and an optical density [1] of 3.54 OD.

B29: 365_G06 (antibody, V domains shown)
VH: B1 VH with S33G, N35H, S49A, S50G, G99A, N101T
VL: B1 VL with R54L, Y92D, D93S, N94T
notes: Group II
B29 gave an optical density (human ACVR2A) of 2.2 OD, an optical density (mouse ACVR2A) of 2.02 OD and an optical density [1] of 3.34 OD.

B30: 366_D01 (antibody, V domains shown)
VH: B1 VH with D30S, S33G, N35H, S59G, G99A
VL: B1 VL with S31T, L33V, D93E
notes: Group I
In the case of B30, the optical density (human ACVR2A) is reported as 2.36 OD, the optical density (mouse ACVR2A) is reported as 2.46 OD and the optical density [1] is reported as 3.48 OD.

B31: 366_C05 (antibody, V domains shown)
VH: B1 VH with S31D, S33G, N35H, S59G, G99A, N101T
VL: B1 VL with L30I, L47V, N94S
notes: Group II
B31 showed an optical density (human ACVR2A) of 2.01 OD, an optical density (mouse ACVR2A) of 2.36 OD and an optical density [1] of 3.4 OD.

B32: 367_B11 (antibody, V domains shown)
VH: B1 VH with D30S, S31D, N35H, S49A, S50N, G55S, G99A, H106A
VL: B1 VL with L47V, D93S, N94T
notes: Group I
With B32 the optical density (human ACVR2A) was 2.34 OD, the optical density (mouse ACVR2A) was 2.46 OD and the optical density [1] was 3.6 OD.

B33: 366_E07 (antibody, V domains shown)
VH: B1 VH with S33G, N35H, S49A, S50G, G99A, N101T, H106A
VL: B1 VL with S31T, L47V, A55H, Y92D, D93N, N94S
notes: Group II
B33 gave an optical density (human ACVR2A) of 1.68 OD, an optical density (mouse ACVR2A) of 1.86 OD and an optical density [1] of 3.14 OD.

B34: 366_G12 (antibody, V domains shown)
VH: B1 VH with D30S, S33G, N35H, S50G, G55S, T58K, S59G
VL: B1 VL with A55H, D93N, N94T
notes: Group III
B34 gave an optical density (human ACVR2A) of 2.71 OD, an optical density (mouse ACVR2A) of 2.83 OD and an optical density [1] of 3.59 OD.

B35: 365_G04 (antibody, V domains shown)
VH: B1 VH with S49A, S50G, S59G
VL: B1 VL with L30V, L33V, L47V, R54L, N94T
notes: Group III
B35 gave an optical density (human ACVR2A) of 2.1 OD, an optical density (mouse ACVR2A) of 2.48 OD and an optical density [1] of 3.29 OD.
